The chains are these.
B1: Interleukin-1 receptor-like 1 (Mus musculus), P14719 (parent)
chain: MIDRQRMGLWALAILTLPMYLTVTEGSKSSWGLENEALIVRCPQRGRSTYPVEWYYSDTNESIPTQKRNRIFVSRDRLKFLPARVEDSGIYACVIRSPNLNKTGYLNVTIHKKPPSCNIPDYLMYSTVRGSDKNFKITCPTIDLYNWTAPVQWFKNCKALQEPRFRAHRSYLFIDNVTHDDEGDYTCQFTHAENGTNYIVTATRSFTVEEKGFSMFPVITNPPYNHTMEVEIGKPASIACSACFGKGSHFLADVLWQINKTVVGNFGEARIQEEEGRNESSSNDMDCLTSVLRITGVTEKDLSLEYDCLALNLHGMIRHTIRLRRKQPIDHRSIYYIVAGCSLLLMFINVLVIVLKVFWIEVALFWRDIVTPYKTRNDGKLYDAYIIYPRVFRGSAAGTHSVEYFVHHTLPDVLENKCGYKLCIYGRDLLPGQDAATVVESSIQNSRRQVFVLAPHMMHSKEFAYEQEIALHSALIQNNSKVILIEMEPLGEASRLQVGDLQDSLQHLVKIQGTIKWREDHVADKQSLSSKFWKHVRYQMPVPERASKTASVAAPLSGKACLDLKHF
partner: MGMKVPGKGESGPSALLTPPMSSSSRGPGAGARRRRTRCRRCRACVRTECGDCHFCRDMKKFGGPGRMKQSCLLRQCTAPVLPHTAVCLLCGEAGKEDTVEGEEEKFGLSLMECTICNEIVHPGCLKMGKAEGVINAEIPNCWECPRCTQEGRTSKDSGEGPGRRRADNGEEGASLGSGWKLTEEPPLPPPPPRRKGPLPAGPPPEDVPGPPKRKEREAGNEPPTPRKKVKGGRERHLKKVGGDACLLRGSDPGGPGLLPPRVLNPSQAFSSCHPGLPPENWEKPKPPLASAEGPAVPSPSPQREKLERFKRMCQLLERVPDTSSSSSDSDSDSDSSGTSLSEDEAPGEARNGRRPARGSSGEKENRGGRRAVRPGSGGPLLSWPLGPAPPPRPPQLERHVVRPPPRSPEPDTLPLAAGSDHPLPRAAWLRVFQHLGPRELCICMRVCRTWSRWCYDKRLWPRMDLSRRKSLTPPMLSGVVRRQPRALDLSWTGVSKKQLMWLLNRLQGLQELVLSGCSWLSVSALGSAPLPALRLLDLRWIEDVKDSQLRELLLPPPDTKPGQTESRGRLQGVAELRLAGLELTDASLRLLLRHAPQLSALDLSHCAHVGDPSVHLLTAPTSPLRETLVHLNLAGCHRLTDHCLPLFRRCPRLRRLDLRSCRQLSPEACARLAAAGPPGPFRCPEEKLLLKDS

Variants of B1 are the subject of the experiment. The conditions noted are these: with fxl19_human FBXL19, Q6PCT2.
S442A: the “effect of a mutation on the interaction” value is “decreasing interaction”.

Values taken from IntAct's records for PubMed 22660580.
